Laboratory results reported in the supplement of paper PMC7125110.
± gives the standard error. This sample holds only a part of the variants without activity.

B1: glmS ribozyme (parent)
chain: AUAAAAGCGCCAGAACUACAGAAAUGUAGUUGACGAGGAGGAGGUUUAUCGAAUUUUCGGCGGAUGCCUCCAAA

Experiments:
Conditions in all cases: with glucosamine-6-phosphate
glucosamine-6-phosphate [1] = variants of: B1; experiment: self-cleavage kobs at 40 uM GlcN6P; higher = faster cleavage; RNA array
Procedure, shortened: (§1)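 On sequenced MiSeq chips, barcoded ribozyme variants were made in situ by E. coli RNA polymerase and followed at 37 °C through a hybridised Cy3 probe. Glucosamine-6-phosphate was flowed in at 40 μM to 10 mM in HEPES/KCl/Mg(OAc)2 buffer. Exponential fits to normalised per-tile medians gave kobs, and weighted Michaelis–Menten fits gave kcat and KM.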

glucosamine-6-phosphate [2] = variants of: B1; experiment: self-cleavage kobs at 640 uM GlcN6P; higher = faster cleavage; RNA array
Procedure, shortened: as §1

glucosamine-6-phosphate [3] = variants of: B1; experiment: self-cleavage kobs at 10000 uM GlcN6P; higher = faster cleavage; RNA array
Procedure, shortened: as §1

glucosamine-6-phosphate [4] = variants of: B1; experiment: self-cleavage kobs at 2500 uM GlcN6P; higher = faster cleavage; RNA array
Procedure, shortened: as §1

glucosamine-6-phosphate [5] = variants of: B1; experiment: self-cleavage kobs at 160 uM GlcN6P; higher = faster cleavage; RNA array
Procedure, shortened: as §1

Variant	self-cleavage kobs at 40 uM GlcN6P (glucosamine-6-phosphate [1])	self-cleavage kobs at 640 uM GlcN6P (glucosamine-6-phosphate [2])	self-cleavage kobs at 10000 uM GlcN6P (glucosamine-6-phosphate [3])	self-cleavage kobs at 2500 uM GlcN6P (glucosamine-6-phosphate [4])	self-cleavage kobs at 160 uM GlcN6P (glucosamine-6-phosphate [5])
G51U U57C	< 1e-05 s⁻¹	< 1e-05 s⁻¹	< 1e-05 s⁻¹	–	–
A33C A36G G40A	< 1e-05 s⁻¹	< 1e-05 s⁻¹	< 1e-05 s⁻¹	< 1e-05 s⁻¹	–
A42U U65A	< 1e-05 s⁻¹	–	4.89e-05 ± 1.2e-05 s⁻¹	–	< 1e-05 s⁻¹
A6C C34A	< 1e-05 s⁻¹	< 1e-05 s⁻¹	< 1e-05 s⁻¹	< 1e-05 s⁻¹	< 1e-05 s⁻¹
A33U G37A	–	–	–	–	< 1e-05 s⁻¹
C34A G59U	< 1e-05 s⁻¹	< 1e-05 s⁻¹	< 1e-05 s⁻¹	< 1e-05 s⁻¹	< 1e-05 s⁻¹
G9C C34G C61G	–	–	< 1e-05 s⁻¹	< 1e-05 s⁻¹	< 1e-05 s⁻¹
C16U C34U	< 1e-05 s⁻¹	–	< 1e-05 s⁻¹	–	< 1e-05 s⁻¹
G51C C58A	–	< 1e-05 s⁻¹	–	< 1e-05 s⁻¹	< 1e-05 s⁻¹
G13U A15U G44A	–	< 1e-05 s⁻¹	–	< 1e-05 s⁻¹	< 1e-05 s⁻¹
C8G G32U C34A	< 1e-05 s⁻¹	–	–	–	–
C10U G43C U47C A52C U65C G66A C70G	–	< 1e-05 s⁻¹	–	–	< 1e-05 s⁻¹
A6G U49G	< 1e-05 s⁻¹	–	–	< 1e-05 s⁻¹	–
U45A C61A	< 1e-05 s⁻¹	< 1e-05 s⁻¹	< 1e-05 s⁻¹	< 1e-05 s⁻¹	–
C8G C50A	–	–	< 1e-05 s⁻¹	< 1e-05 s⁻¹	< 1e-05 s⁻¹
A39U U65C	8.42e-05 ± 1.7e-05 s⁻¹	0.00114 ± 0.00015 s⁻¹	–	0.00149 ± 0.00024 s⁻¹	0.000124 ± 2.7e-05 s⁻¹
U45C G62U	–	< 1e-05 s⁻¹	< 1e-05 s⁻¹	< 1e-05 s⁻¹	< 1e-05 s⁻¹
G9U G40A A52U	–	–	–	< 1e-05 s⁻¹	< 1e-05 s⁻¹
G13A A53U	< 1e-05 s⁻¹	7.57e-05 ± 2.4e-05 s⁻¹	–	0.000174 ± 4.1e-05 s⁻¹	–
C34A U45G	< 1e-05 s⁻¹	< 1e-05 s⁻¹	< 1e-05 s⁻¹	< 1e-05 s⁻¹	< 1e-05 s⁻¹
G60U C61G	< 1e-05 s⁻¹	–	< 1e-05 s⁻¹	< 1e-05 s⁻¹	–
A15G U45A	0.00128 ± 0.00026 s⁻¹	0.025 ± 0.0066 s⁻¹	0.098 ± 0.043 s⁻¹	0.046 ± 0.019 s⁻¹	0.00318 ± 0.0012 s⁻¹
A6U G9C	< 1e-05 s⁻¹	< 1e-05 s⁻¹	< 1e-05 s⁻¹	–	–
G51U A53U	–	< 1e-05 s⁻¹	< 1e-05 s⁻¹	< 1e-05 s⁻¹	< 1e-05 s⁻¹

Variant	self-cleavage kobs at 40 uM GlcN6P (glucosamine-6-phosphate [1])	self-cleavage kobs at 640 uM GlcN6P (glucosamine-6-phosphate [2])	self-cleavage kobs at 10000 uM GlcN6P (glucosamine-6-phosphate [3])	self-cleavage kobs at 2500 uM GlcN6P (glucosamine-6-phosphate [4])	self-cleavage kobs at 160 uM GlcN6P (glucosamine-6-phosphate [5])
G7U C50G	0.000281 ± 8.4e-05 s⁻¹	–	–	0.0008 ± 0.00024 s⁻¹	0.000551 ± 0.00024 s⁻¹
G41A G51C	< 1e-05 s⁻¹	< 1e-05 s⁻¹	–	–	< 1e-05 s⁻¹
U65G C67A C71G	–	4.48e-05 ± 1.8e-05 s⁻¹	4.47e-05 ± 1.5e-05 s⁻¹	7.1e-05 ± 1.3e-05 s⁻¹	0.000166 ± 5.7e-05 s⁻¹
C10U U31A A53C U55G	< 1e-05 s⁻¹	–	–	–	–
C10G U65A	< 1e-05 s⁻¹	< 1e-05 s⁻¹	< 1e-05 s⁻¹	–	–
A12G G62U	< 1e-05 s⁻¹	< 1e-05 s⁻¹	–	–	–
A42G G60A C68A	–	–	–	–	< 1e-05 s⁻¹
C10U A14G A15G G43A U45G A52G A64G	< 1e-05 s⁻¹	–	< 1e-05 s⁻¹	–	< 1e-05 s⁻¹
A53C G63A	–	< 1e-05 s⁻¹	< 1e-05 s⁻¹	–	< 1e-05 s⁻¹
G44C G62C	< 1e-05 s⁻¹	< 1e-05 s⁻¹	< 1e-05 s⁻¹	< 1e-05 s⁻¹	< 1e-05 s⁻¹
C10U G44A G51U	< 1e-05 s⁻¹	–	–	–	–
G62A C71A	< 1e-05 s⁻¹	–	< 1e-05 s⁻¹	–	–
G51U U56C U57C G63U	–	< 1e-05 s⁻¹	< 1e-05 s⁻¹	< 1e-05 s⁻¹	< 1e-05 s⁻¹
G9U A33G	< 1e-05 s⁻¹	< 1e-05 s⁻¹	–	< 1e-05 s⁻¹	< 1e-05 s⁻¹
G43A U54C U69G	–	< 1e-05 s⁻¹	< 1e-05 s⁻¹	–	< 1e-05 s⁻¹
C16U G32A G51U	–	–	–	–	< 1e-05 s⁻¹
C8U G51A A52G G63C	< 1e-05 s⁻¹	–	–	–	–
C11U U30C A52C	< 1e-05 s⁻¹	–	–	–	–
G35C G63C	–	< 1e-05 s⁻¹	–	< 1e-05 s⁻¹	< 1e-05 s⁻¹
C8A G35C G62U	–	< 1e-05 s⁻¹	–	< 1e-05 s⁻¹	< 1e-05 s⁻¹
G7A A52G	< 1e-05 s⁻¹	< 1e-05 s⁻¹	< 1e-05 s⁻¹	–	–
G37A G51A U55G	< 1e-05 s⁻¹	–	< 1e-05 s⁻¹	–	–
C8A C11U	< 1e-05 s⁻¹	< 1e-05 s⁻¹	< 1e-05 s⁻¹	< 1e-05 s⁻¹	–
A15C A39G G40A G59C	< 1e-05 s⁻¹	–	–	–	–

Variant	self-cleavage kobs at 40 uM GlcN6P (glucosamine-6-phosphate [1])	self-cleavage kobs at 640 uM GlcN6P (glucosamine-6-phosphate [2])	self-cleavage kobs at 10000 uM GlcN6P (glucosamine-6-phosphate [3])	self-cleavage kobs at 2500 uM GlcN6P (glucosamine-6-phosphate [4])	self-cleavage kobs at 160 uM GlcN6P (glucosamine-6-phosphate [5])
A6U G41C	< 1e-05 s⁻¹	–	< 1e-05 s⁻¹	< 1e-05 s⁻¹	< 1e-05 s⁻¹
C16G A36G	< 1e-05 s⁻¹	< 1e-05 s⁻¹	< 1e-05 s⁻¹	–	< 1e-05 s⁻¹
C61G A64U U65A C68U	–	< 1e-05 s⁻¹	–	–	< 1e-05 s⁻¹
G29U A36C A39C	< 1e-05 s⁻¹	–	< 1e-05 s⁻¹	–	–
G29A A36U A39G G41U C67G	< 1e-05 s⁻¹	–	–	< 1e-05 s⁻¹	–
U30A G63U	< 1e-05 s⁻¹	–	< 1e-05 s⁻¹	–	< 1e-05 s⁻¹
U31G G44A	< 1e-05 s⁻¹	–	9.7e-05 ± 2.6e-05 s⁻¹	5.95e-05 ± 2.1e-05 s⁻¹	–
C16A G35U G37U U65G	–	< 1e-05 s⁻¹	–	–	< 1e-05 s⁻¹
A15G U47G G60A C61U C68A	6.07e-05 ± 2.7e-05 s⁻¹	0.000299 ± 9.2e-05 s⁻¹	–	0.00013 ± 3.6e-05 s⁻¹	–
C10A A12U	< 1e-05 s⁻¹	–	–	–	–
A42C C58A	–	< 1e-05 s⁻¹	< 1e-05 s⁻¹	–	< 1e-05 s⁻¹
A15G G43U A48C	< 1e-05 s⁻¹	–	–	< 1e-05 s⁻¹	–
G62A C67U	< 1e-05 s⁻¹	–	< 1e-05 s⁻¹	< 1e-05 s⁻¹	–
A14U U57C G66U	–	–	–	–	< 1e-05 s⁻¹
G7U U55G U57G C61A A64C C68U	–	–	–	< 1e-05 s⁻¹	< 1e-05 s⁻¹
A39C A48U G59U	< 1e-05 s⁻¹	–	< 1e-05 s⁻¹	–	–
C8G C10A G60U	< 1e-05 s⁻¹	–	< 1e-05 s⁻¹	–	–
G38C G41C	–	< 1e-05 s⁻¹	–	< 1e-05 s⁻¹	< 1e-05 s⁻¹
U47C G66C C67U	< 1e-05 s⁻¹	–	–	–	–
A6C G62C	< 1e-05 s⁻¹	< 1e-05 s⁻¹	< 1e-05 s⁻¹	< 1e-05 s⁻¹	< 1e-05 s⁻¹
A15U G62C	< 1e-05 s⁻¹	< 1e-05 s⁻¹	< 1e-05 s⁻¹	–	–
A15U G62A	< 1e-05 s⁻¹	–	< 1e-05 s⁻¹	< 1e-05 s⁻¹	< 1e-05 s⁻¹
C34U A53G	< 1e-05 s⁻¹	–	< 1e-05 s⁻¹	–	–
A12U C34G G40C C50A	< 1e-05 s⁻¹	< 1e-05 s⁻¹	–	< 1e-05 s⁻¹	< 1e-05 s⁻¹

Variant	self-cleavage kobs at 40 uM GlcN6P (glucosamine-6-phosphate [1])	self-cleavage kobs at 640 uM GlcN6P (glucosamine-6-phosphate [2])	self-cleavage kobs at 10000 uM GlcN6P (glucosamine-6-phosphate [3])	self-cleavage kobs at 2500 uM GlcN6P (glucosamine-6-phosphate [4])	self-cleavage kobs at 160 uM GlcN6P (glucosamine-6-phosphate [5])
G43U G59U	–	< 1e-05 s⁻¹	–	< 1e-05 s⁻¹	< 1e-05 s⁻¹
G63A C67U	–	–	–	–	< 1e-05 s⁻¹
G9C U45C	< 1e-05 s⁻¹	–	–	< 1e-05 s⁻¹	–
G29C A36G G41U	–	< 1e-05 s⁻¹	–	< 1e-05 s⁻¹	< 1e-05 s⁻¹
U31A U45G U54G C58A C61A	< 1e-05 s⁻¹	–	< 1e-05 s⁻¹	–	< 1e-05 s⁻¹
G51U A53C C67G	< 1e-05 s⁻¹	–	–	–	–
C10U A15U G43A A52G	< 1e-05 s⁻¹	–	< 1e-05 s⁻¹	–	–
A33U C68G C71A	–	< 1e-05 s⁻¹	–	–	< 1e-05 s⁻¹
G37A U46G A53G C61A C70A	–	–	–	–	< 1e-05 s⁻¹
C10A U56C	–	< 1e-05 s⁻¹	–	< 1e-05 s⁻¹	< 1e-05 s⁻¹
G43U U46A U47G C70G	< 1e-05 s⁻¹	< 1e-05 s⁻¹	< 1e-05 s⁻¹	< 1e-05 s⁻¹	–
C8G G51A U55G	–	< 1e-05 s⁻¹	–	–	< 1e-05 s⁻¹
U30A C61U	< 1e-05 s⁻¹	< 1e-05 s⁻¹	< 1e-05 s⁻¹	–	–
A42C G60U	< 1e-05 s⁻¹	–	< 1e-05 s⁻¹	< 1e-05 s⁻¹	–
C16A G38A	< 1e-05 s⁻¹	–	–	–	–
C8A G13U G41C U55C U65A U69G	< 1e-05 s⁻¹	–	–	–	–
A6G A12G A64U C70U	< 1e-05 s⁻¹	–	< 1e-05 s⁻¹	–	–
G41U U49A	< 1e-05 s⁻¹	< 1e-05 s⁻¹	< 1e-05 s⁻¹	–	–
G7C G66U	< 1e-05 s⁻¹	< 1e-05 s⁻¹	–	< 1e-05 s⁻¹	< 1e-05 s⁻¹
C8G C70U	–	< 1e-05 s⁻¹	< 1e-05 s⁻¹	< 1e-05 s⁻¹	< 1e-05 s⁻¹
G9U C11U C34A G43U C61A C67G	–	–	–	–	< 1e-05 s⁻¹
G7C G44C A64U	< 1e-05 s⁻¹	–	< 1e-05 s⁻¹	–	–
U46A U57C	< 1e-05 s⁻¹	–	–	–	–
C8A A52C	< 1e-05 s⁻¹	< 1e-05 s⁻¹	< 1e-05 s⁻¹	–	< 1e-05 s⁻¹
